Non-standard residues stand in square brackets, D forms with d. Dab = NCC[C@H](N)C(=O)O; Aib = CC(C)(N)C(=O)O
The binders below were run against human glucagon receptor (human, UniProt P47871 26-477) (assay: cell-based or functional assay).
Sequence of human glucagon receptor (P47871 26-477): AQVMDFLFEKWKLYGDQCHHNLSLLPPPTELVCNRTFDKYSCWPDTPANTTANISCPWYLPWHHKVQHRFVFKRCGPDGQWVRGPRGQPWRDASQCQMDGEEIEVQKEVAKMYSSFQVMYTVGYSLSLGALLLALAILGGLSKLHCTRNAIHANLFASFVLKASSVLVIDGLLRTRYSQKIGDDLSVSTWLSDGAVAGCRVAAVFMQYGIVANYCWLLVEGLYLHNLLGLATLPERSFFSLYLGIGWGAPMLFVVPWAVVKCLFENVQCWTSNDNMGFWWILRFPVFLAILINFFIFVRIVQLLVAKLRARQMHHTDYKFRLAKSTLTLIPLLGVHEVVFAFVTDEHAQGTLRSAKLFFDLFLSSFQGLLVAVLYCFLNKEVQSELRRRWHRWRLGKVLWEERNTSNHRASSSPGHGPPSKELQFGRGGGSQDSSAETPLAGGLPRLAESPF

GCG-R EC50 in vitro [nM] (cAMP, AlphaScreen, HEK293 cells expressing human Glucagon-R)	Binder
0.0047 nM	H-HSHGTFTSDYSKYLD[Aib]ARAEEFVKWLEST-NH2 (SMILES CC(C)C[C@H](NC(=O)[C@H](Cc1c[nH]c2ccccc12)NC(=O)[C@H](CCCCN)NC(=O)[C@@H](NC(=O)[C@H](Cc1ccccc1)NC(=O)[C@H](CCC(=O)O)NC(=O)[C@H](CCC(=O)O)NC(=O)[C@H](C)NC(=O)[C@H](CCCNC(=N)N)NC(=O)[C@H](C)NC(=O)C(C)(C)NC(=O)[C@H](CC(=O)O)NC(=O)[C@H](CC(C)C)NC(=O)[C@H](Cc1ccc(O)cc1)NC(=O)[C@H](CCCCN)NC(=O)[C@H](CO)NC(=O)[C@H](Cc1ccc(O)cc1)NC(=O)[C@H](CC(=O)O)NC(=O)[C@H](CO)NC(=O)[C@@H](NC(=O)[C@H](Cc1ccccc1)NC(=O)[C@@H](NC(=O)CNC(=O)[C@H](Cc1c[nH]cn1)NC(=O)[C@H](CO)NC(=O)[C@@H](N)Cc1c[nH]cn1)[C@@H](C)O)[C@@H](C)O)C(C)C)C(=O)N[C@@H](CCC(=O)O)C(=O)N[C@@H](CO)C(=O)N[C@H](C(N)=O)[C@@H](C)O) [Compound 38]
0.094 nM	H-HSQGTFTSDYSKYLE[Aib]ARAEEFVKWLEST-OH (SMILES CC(C)C[C@H](NC(=O)[C@H](Cc1c[nH]c2ccccc12)NC(=O)[C@H](CCCCN)NC(=O)[C@@H](NC(=O)[C@H](Cc1ccccc1)NC(=O)[C@H](CCC(=O)O)NC(=O)[C@H](CCC(=O)O)NC(=O)[C@H](C)NC(=O)[C@H](CCCNC(=N)N)NC(=O)[C@H](C)NC(=O)C(C)(C)NC(=O)[C@H](CCC(=O)O)NC(=O)[C@H](CC(C)C)NC(=O)[C@H](Cc1ccc(O)cc1)NC(=O)[C@H](CCCCN)NC(=O)[C@H](CO)NC(=O)[C@H](Cc1ccc(O)cc1)NC(=O)[C@H](CC(=O)O)NC(=O)[C@H](CO)NC(=O)[C@@H](NC(=O)[C@H](Cc1ccccc1)NC(=O)[C@@H](NC(=O)CNC(=O)[C@H](CCC(N)=O)NC(=O)[C@H](CO)NC(=O)[C@@H](N)Cc1c[nH]cn1)[C@@H](C)O)[C@@H](C)O)C(C)C)C(=O)N[C@@H](CCC(=O)O)C(=O)N[C@@H](CO)C(=O)N[C@H](C(=O)O)[C@@H](C)O) [Compound 37]
0.014 nM	H-HSQGTFTSDYSKYLD[Aib]ARAEEFVAWLEST-OH (SMILES CC(C)C[C@H](NC(=O)[C@H](Cc1c[nH]c2ccccc12)NC(=O)[C@H](C)NC(=O)[C@@H](NC(=O)[C@H](Cc1ccccc1)NC(=O)[C@H](CCC(=O)O)NC(=O)[C@H](CCC(=O)O)NC(=O)[C@H](C)NC(=O)[C@H](CCCNC(=N)N)NC(=O)[C@H](C)NC(=O)C(C)(C)NC(=O)[C@H](CC(=O)O)NC(=O)[C@H](CC(C)C)NC(=O)[C@H](Cc1ccc(O)cc1)NC(=O)[C@H](CCCCN)NC(=O)[C@H](CO)NC(=O)[C@H](Cc1ccc(O)cc1)NC(=O)[C@H](CC(=O)O)NC(=O)[C@H](CO)NC(=O)[C@@H](NC(=O)[C@H](Cc1ccccc1)NC(=O)[C@@H](NC(=O)CNC(=O)[C@H](CCC(N)=O)NC(=O)[C@H](CO)NC(=O)[C@@H](N)Cc1c[nH]cn1)[C@@H](C)O)[C@@H](C)O)C(C)C)C(=O)N[C@@H](CCC(=O)O)C(=O)N[C@@H](CO)C(=O)N[C@H](C(=O)O)[C@@H](C)O) [Compound 35]
0.01 nM	H-HSQGTFTSDYSKYLD[Aib]ARAEEFVKWLEET-OH (SMILES CC(C)C[C@H](NC(=O)[C@H](Cc1c[nH]c2ccccc12)NC(=O)[C@H](CCCCN)NC(=O)[C@@H](NC(=O)[C@H](Cc1ccccc1)NC(=O)[C@H](CCC(=O)O)NC(=O)[C@H](CCC(=O)O)NC(=O)[C@H](C)NC(=O)[C@H](CCCNC(=N)N)NC(=O)[C@H](C)NC(=O)C(C)(C)NC(=O)[C@H](CC(=O)O)NC(=O)[C@H](CC(C)C)NC(=O)[C@H](Cc1ccc(O)cc1)NC(=O)[C@H](CCCCN)NC(=O)[C@H](CO)NC(=O)[C@H](Cc1ccc(O)cc1)NC(=O)[C@H](CC(=O)O)NC(=O)[C@H](CO)NC(=O)[C@@H](NC(=O)[C@H](Cc1ccccc1)NC(=O)[C@@H](NC(=O)CNC(=O)[C@H](CCC(N)=O)NC(=O)[C@H](CO)NC(=O)[C@@H](N)Cc1c[nH]cn1)[C@@H](C)O)[C@@H](C)O)C(C)C)C(=O)N[C@@H](CCC(=O)O)C(=O)N[C@@H](CCC(=O)O)C(=O)N[C@H](C(=O)O)[C@@H](C)O) [Compound 36]

The next lines start with the binder.

Binder	GCG-R EC50 in vitro [nM] (cAMP, AlphaScreen, HEK293 cells expressing human Glucagon-R)
H-HSQGTFTSDYSKYLD[Aib]ARAESFVKWLEST-NH2 (SMILES CC(C)C[C@H](NC(=O)[C@H](Cc1c[nH]c2ccccc12)NC(=O)[C@H](CCCCN)NC(=O)[C@@H](NC(=O)[C@H](Cc1ccccc1)NC(=O)[C@H](CO)NC(=O)[C@H](CCC(=O)O)NC(=O)[C@H](C)NC(=O)[C@H](CCCNC(=N)N)NC(=O)[C@H](C)NC(=O)C(C)(C)NC(=O)[C@H](CC(=O)O)NC(=O)[C@H](CC(C)C)NC(=O)[C@H](Cc1ccc(O)cc1)NC(=O)[C@H](CCCCN)NC(=O)[C@H](CO)NC(=O)[C@H](Cc1ccc(O)cc1)NC(=O)[C@H](CC(=O)O)NC(=O)[C@H](CO)NC(=O)[C@@H](NC(=O)[C@H](Cc1ccccc1)NC(=O)[C@@H](NC(=O)CNC(=O)[C@H](CCC(N)=O)NC(=O)[C@H](CO)NC(=O)[C@@H](N)Cc1c[nH]cn1)[C@@H](C)O)[C@@H](C)O)C(C)C)C(=O)N[C@@H](CCC(=O)O)C(=O)N[C@@H](CO)C(=O)N[C@H](C(N)=O)[C@@H](C)O) [Compound 31]	0.0072 nM
H-HSQGTFTSDYSKYLD[Aib]ARAEKFVEWLEST-OH (SMILES CC(C)C[C@H](NC(=O)[C@H](Cc1c[nH]c2ccccc12)NC(=O)[C@H](CCC(=O)O)NC(=O)[C@@H](NC(=O)[C@H](Cc1ccccc1)NC(=O)[C@H](CCCCN)NC(=O)[C@H](CCC(=O)O)NC(=O)[C@H](C)NC(=O)[C@H](CCCNC(=N)N)NC(=O)[C@H](C)NC(=O)C(C)(C)NC(=O)[C@H](CC(=O)O)NC(=O)[C@H](CC(C)C)NC(=O)[C@H](Cc1ccc(O)cc1)NC(=O)[C@H](CCCCN)NC(=O)[C@H](CO)NC(=O)[C@H](Cc1ccc(O)cc1)NC(=O)[C@H](CC(=O)O)NC(=O)[C@H](CO)NC(=O)[C@@H](NC(=O)[C@H](Cc1ccccc1)NC(=O)[C@@H](NC(=O)CNC(=O)[C@H](CCC(N)=O)NC(=O)[C@H](CO)NC(=O)[C@@H](N)Cc1c[nH]cn1)[C@@H](C)O)[C@@H](C)O)C(C)C)C(=O)N[C@@H](CCC(=O)O)C(=O)N[C@@H](CO)C(=O)N[C@H](C(=O)O)[C@@H](C)O) [Compound 34]	0.028 nM
H-HS[Dab](Ac)GTFTSDYSKYLD[Aib]ARAESFVKWLEST-OH (SMILES CC(=O)NCC[C@H](NC(=O)[C@H](CO)NC(=O)[C@@H](N)Cc1c[nH]cn1)C(=O)NCC(=O)N[C@H](C(=O)N[C@@H](Cc1ccccc1)C(=O)N[C@H](C(=O)N[C@@H](CO)C(=O)N[C@@H](CC(=O)O)C(=O)N[C@@H](Cc1ccc(O)cc1)C(=O)N[C@@H](CO)C(=O)N[C@@H](CCCCN)C(=O)N[C@@H](Cc1ccc(O)cc1)C(=O)N[C@@H](CC(C)C)C(=O)N[C@@H](CC(=O)O)C(=O)NC(C)(C)C(=O)N[C@@H](C)C(=O)N[C@@H](CCCNC(=N)N)C(=O)N[C@@H](C)C(=O)N[C@@H](CCC(=O)O)C(=O)N[C@@H](CO)C(=O)N[C@@H](Cc1ccccc1)C(=O)N[C@H](C(=O)N[C@@H](CCCCN)C(=O)N[C@@H](Cc1c[nH]c2ccccc12)C(=O)N[C@@H](CC(C)C)C(=O)N[C@@H](CCC(=O)O)C(=O)N[C@@H](CO)C(=O)N[C@H](C(=O)O)[C@@H](C)O)C(C)C)[C@@H](C)O)[C@@H](C)O) [Compound 32]	0.0093 nM
H-HSQGTFTSDYSKYLD[Aib]ARAEEFVSWLEKT-OH (SMILES CC(C)C[C@H](NC(=O)[C@H](Cc1c[nH]c2ccccc12)NC(=O)[C@H](CO)NC(=O)[C@@H](NC(=O)[C@H](Cc1ccccc1)NC(=O)[C@H](CCC(=O)O)NC(=O)[C@H](CCC(=O)O)NC(=O)[C@H](C)NC(=O)[C@H](CCCNC(=N)N)NC(=O)[C@H](C)NC(=O)C(C)(C)NC(=O)[C@H](CC(=O)O)NC(=O)[C@H](CC(C)C)NC(=O)[C@H](Cc1ccc(O)cc1)NC(=O)[C@H](CCCCN)NC(=O)[C@H](CO)NC(=O)[C@H](Cc1ccc(O)cc1)NC(=O)[C@H](CC(=O)O)NC(=O)[C@H](CO)NC(=O)[C@@H](NC(=O)[C@H](Cc1ccccc1)NC(=O)[C@@H](NC(=O)CNC(=O)[C@H](CCC(N)=O)NC(=O)[C@H](CO)NC(=O)[C@@H](N)Cc1c[nH]cn1)[C@@H](C)O)[C@@H](C)O)C(C)C)C(=O)N[C@@H](CCC(=O)O)C(=O)N[C@@H](CCCCN)C(=O)N[C@H](C(=O)O)[C@@H](C)O) [Compound 33]	0.044 nM
H-HSQGTFTSDYSKYLDKARAEDFVKWLEST-OH [Compound 3]	0.03 nM
H-HSQGTFTSDYSKYLD[Aib]ARAESFVKWLESA-OH (SMILES CC(C)C[C@H](NC(=O)[C@H](Cc1c[nH]c2ccccc12)NC(=O)[C@H](CCCCN)NC(=O)[C@@H](NC(=O)[C@H](Cc1ccccc1)NC(=O)[C@H](CO)NC(=O)[C@H](CCC(=O)O)NC(=O)[C@H](C)NC(=O)[C@H](CCCNC(=N)N)NC(=O)[C@H](C)NC(=O)C(C)(C)NC(=O)[C@H](CC(=O)O)NC(=O)[C@H](CC(C)C)NC(=O)[C@H](Cc1ccc(O)cc1)NC(=O)[C@H](CCCCN)NC(=O)[C@H](CO)NC(=O)[C@H](Cc1ccc(O)cc1)NC(=O)[C@H](CC(=O)O)NC(=O)[C@H](CO)NC(=O)[C@@H](NC(=O)[C@H](Cc1ccccc1)NC(=O)[C@@H](NC(=O)CNC(=O)[C@H](CCC(N)=O)NC(=O)[C@H](CO)NC(=O)[C@@H](N)Cc1c[nH]cn1)[C@@H](C)O)[C@@H](C)O)C(C)C)C(=O)N[C@@H](CCC(=O)O)C(=O)N[C@@H](CO)C(=O)N[C@@H](C)C(=O)O) [Compound 30]	0.016 nM
